The text below walks through data of the supplement of paper PMC7877785.

± gives the uncertainty stated by the source.

The data set in a line: self-splicing fitness, log relative to wild type (ln ratio); higher = more splicing; Tetrahymena group I intron in knt gene, E. coli kanamycin selection, DiMSum; sequences stand for … in CUCUCU…GGAGGGAAAAGUUAUCAGGCAUGCACCUGGUAGCUAGUCUUUAAACCAAUAGAUUGCAUCGGUUUAAAAGGCAAGACCGUCAAAUUGCGGGAAAGGGGUCAACAGCCGUUCAGUACCAAGUCUCAGGGGAAACUUUGAGAUGGCCUUGCAAAGGGUAUGGUAAUAAGCUGACGGACAUGGUCCUAACCACGCAGCCAAGUCCUAAGUCAACAGAUCUUCUGUUGAUAUGGAUGCAGUUCACAGACUAAAUGUCGGUCGGGGAAGAUGUAUUCUUCUCAUAAGAUAUAGUCGGACCUCUCCUUAAUGGGAGCUAGCGGAUGAAGUGAUGCAACACUGGAGCCGCUGGGAACUAAUUUGUAUGCGAAAGUAUAUUGAUUAGUUUUGGAGUACUCGUGGUCG
In a few lines:
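The eight P1ex-region nucleotides of an intron in the knt kanamycin-resistance gene on pET-22b(+) were all randomised and the library put into E. coli BL21(DE3). Six replicate transformations were grown overnight at 37°C or 30°C on LB agar with or without 25 μg/mL kanamycin, together with 100 μg/mL carbenicillin, 50 μM IPTG and 0.2% rhamnose. Colonies were pooled and amplicon-sequenced on an Illumina HiSeq 2500. Fitness from DiMSum is the error-weighted combination of wild-type-normalised replicate fold changes, kanamycin over none.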

For the sequence GUGGAGCAAUAUUACGUAAA, the “self-splicing fitness (ln)” value is -1.5 ± 0.21 (30 °C) and -2.18 ± 0.47 (37 °C). For GUGGAGCAAUAUUACGUCAA, the “self-splicing fitness (ln)” value reads like this: (30 °C) -1.28 ± 0.33; (37 °C) -1.78 ± 0.32.

GUGGAGCAAUAUUACGUCAG: the “self-splicing fitness (ln)” value (37 °C) was -2.43 ± 0.46. For the sequence GUGGAGCAAUAUUACGUGAU, the “self-splicing fitness (ln)” value runs as follows: (30 °C) -2.49 ± 0.12; (37 °C) -1.6 ± 0.12. For GUGGAGCAAUAUUACGUUAC, the “self-splicing fitness (ln)” value was -2.99 ± 0.24 (30 °C) and -2.5 ± 0.3 (37 °C). Turning to GUGGAGCAAUAUUACGUUGA, the “self-splicing fitness (ln)” value (30 °C) is -3.13 ± 0.47 and the “self-splicing fitness (ln)” value (37 °C) was -1.5 ± 0.25.

GUGGAGCAAUAUUACGUUUA: the “self-splicing fitness (ln)” value is -3.33 ± 0.2 (30 °C) and -2.26 ± 0.33 (37 °C). With GUGUAGCAAUAUUACGAAUC, the “self-splicing fitness (ln)” value is -1.43 ± 0.17 (30 °C) and -0.973 ± 0.14 (37 °C). In the same order, the values of GUGUAGCAAUAUUACGACGA are -0.571 ± 0.14 and -0.584 ± 0.16. Regarding GUGUAGCAAUAUUACGACGC, the “self-splicing fitness (ln)” value is -1.8 ± 0.18 (30 °C) and -0.0871 ± 0.22 (37 °C). Regarding GUGUAGCAAUAUUACGAUAC, the “self-splicing fitness (ln)” value runs as follows: (30 °C) -2.23 ± 0.25; (37 °C) -1.01 ± 0.25.

Take GUGUAGCAAUAUUACGAUCC: the “self-splicing fitness (ln)” value runs as follows: (30 °C) -0.838 ± 0.21; (37 °C) -0.041 ± 0.46. For the sequence GUGUAGCAAUAUUACGCCGG, the “self-splicing fitness (ln)” value reads like this: (30 °C) -2.93 ± 0.27; (37 °C) -2.16 ± 0.38.

In the case of GUGUAGCAAUAUUACGCUCU, the “self-splicing fitness (ln)” value reads like this: (30 °C) -1.72 ± 0.23; (37 °C) -0.839 ± 0.22. With GUGUAGCAAUAUUACGGCUA, the “self-splicing fitness (ln)” value runs as follows: (30 °C) -1.84 ± 0.34; (37 °C) -2.77 ± 0.32. In the case of GUGUAGCAAUAUUACGGUGG, the “self-splicing fitness (ln)” value runs as follows: (30 °C) -3.98 ± 0.35; (37 °C) -3.36 ± 0.31.

As to GUGUAGCAAUAUUACGUAAC, the “self-splicing fitness (ln)” value reads like this: (30 °C) -1.66 ± 0.14; (37 °C) -0.0998 ± 0.14. In the same order, the values of GUGUAGCAAUAUUACGUCAU are -3.23 ± 0.2 and -2.63 ± 0.17. Take GUGUAGCAAUAUUACGUCCC: the “self-splicing fitness (ln)” value runs as follows: (30 °C) -0.132 ± 0.21; (37 °C) -0.385 ± 0.23. Consider GUGUAGCAAUAUUACGUCUA, for which the “self-splicing fitness (ln)” value is -1.13 ± 0.24 (30 °C) and 0.254 ± 0.23 (37 °C).

For GUGUAGCAAUAUUACGUCUG, the “self-splicing fitness (ln)” value runs as follows: (30 °C) -1.08 ± 0.17; (37 °C) -1.74 ± 0.27.

Regarding GUGUAGCAAUAUUACGUUCG, the “self-splicing fitness (ln)” value is -1.65 ± 0.091 (30 °C) and -0.693 ± 0.11 (37 °C).

GUGUAGCAAUAUUACGUUGU: the “self-splicing fitness (ln)” value (30 °C) was -3.02 ± 0.28 and the “self-splicing fitness (ln)” value (37 °C) was -2.17 ± 0.21. In the same order, the values of GUGUAGCAAUAUUACGUUUU are -3.32 ± 0.16 and -1.45 ± 0.12. As to GUUAAGCAAUAUUACGAAUG, the “self-splicing fitness (ln)” value reads like this: (30 °C) -2.32 ± 0.24; (37 °C) -1.59 ± 0.21.

As for GUUAAGCAAUAUUACGAGAG, the “self-splicing fitness (ln)” value is, setting by setting: (30 °C) -3.24 ± 0.2; (37 °C) -2.26 ± 0.2. In the case of GUUAAGCAAUAUUACGCACG, the “self-splicing fitness (ln)” value was -0.281 ± 0.18 (30 °C) and -0.714 ± 0.18 (37 °C). For GUUAAGCAAUAUUACGCAUA, the “self-splicing fitness (ln)” value reads like this: (30 °C) -0.993 ± 0.091; (37 °C) -0.274 ± 0.11.

As for GUUAAGCAAUAUUACGCCCU, the “self-splicing fitness (ln)” value is, setting by setting: (30 °C) -0.813 ± 0.14; (37 °C) -0.242 ± 0.11. In the same order, the values of GUUAAGCAAUAUUACGCUUG are -2.28 ± 0.14 and -0.983 ± 0.15.

Consider GUUAAGCAAUAUUACGGGAU, for which the “self-splicing fitness (ln)” value is -2.31 ± 0.14 (30 °C) and -0.169 ± 0.14 (37 °C). In the same order, the values of GUUAAGCAAUAUUACGGGCU are -4.09 ± 0.34 and -1.85 ± 0.2. In the same order, the values of GUUAAGCAAUAUUACGGGGG are -3.44 ± 0.34 and -2.67 ± 0.27. GUUAAGCAAUAUUACGGUGU: the “self-splicing fitness (ln)” value (30 °C) is -1.58 ± 0.11 and the “self-splicing fitness (ln)” value (37 °C) was -0.8 ± 0.12.

Consider GUUAAGCAAUAUUACGUCCC, for which the “self-splicing fitness (ln)” value (30 °C) is 0.552 ± 0.49. Take GUUAAGCAAUAUUACGUGAG: the “self-splicing fitness (ln)” value by setting is: (30 °C) -0.109 ± 0.052; (37 °C) -0.0542 ± 0.098. On to GUUCAGCAAUAUUACGACCA, for which the “self-splicing fitness (ln)” value is -0.964 ± 0.14 (30 °C) and -0.856 ± 0.13 (37 °C).

As to GUUCAGCAAUAUUACGACGA, the “self-splicing fitness (ln)” value is -1.26 ± 0.21 (30 °C) and -0.637 ± 0.18 (37 °C).
